Results on nine molecules are retold here after paper PMC7367873, “Dissecting the sequence determinants for dephosphorylation by the catalytic subunits of phosphatases PP1 and PP2A” (Nature Communications, 2020).

The subject of experiment [1] is GFP-14-3-3β and its binding proteins. In words: GFP-14-3-3β co-IP with LC-MS/MS label-free quantification, untreated versus PP1c-treated. The arrangement: species or system human. The following applies: GFP-14-3-3β co-IP LC-MS/MS; PP1 vs untreated; student's t-test; label-free quantification, 3 replicates each.
The test system of experiment [2] is GFP-14-3-3β. In words: GFP-14-3-3β co-IP with LC-MS/MS, untreated GFP-14-3-3β versus GFP control (14-3-3 interactome). It counts as binding, human. The following applies: GFP-14-3-3β co-IP LC-MS/MS; untreated vs GFP; student's t-test; label-free quantification, 3 replicates each.

B1: DNTTIP2 (protein, UniProt Q5QJE6 1-756, looked up)
Deoxynucleotidyltransferase …: MVVTRSARAKASIQAASAESSGQKSFAANGIQAHPESSTGSDARTTAESQTTGKQSLIPRTPKARKRKSRTTGSLPKGTEPSTDGETSEAESNYSVSEHHDTILRVTRRRQILIACSPVSSVRKKPKVTPTKESYTEEIVSEAESHVSGISRIVLPTEKTTGARRSKAKSLTDPSQESHTEAISDAETSSSDISFSGIATRRTRSMQRKLKAQTEKKDSKIVPGNEKQIVGTPVNSEDSDTRQTSHLQARSLSEINKPNFYNNDFDDDFSHRSSENILTVHEQANVESLKETKQNCKDLDEDANGITDEGKEINEKSSQLKNLSELQDTSLQQLVSQRHSTPQNKNAVSVHSNLNSEAVMKSLTQTFATVEVGRWNNNKKSPIKASDLTKFGDCGGSDDEEESTVISVSEDMNSEGNVDFECDTKLYTSAPNTSQGKDNSVLLVLSSDESQQSENSENEEDTLCFVENSGQRESLSGDTGSLSCDNALFVIDTTPGMSADKNFYLEEEDKASEVAIEEEKEEEEDEKSEEDSSDHDENEDEFSDEEDFLNSTKAKLLKLTSSSIDPGLSIKQLGGLYINFNADKLQSNKRTLTQIKEKKKNELLQKAVITPDFEKNHCVPPYSESKYQLQKKRRKERQKTAGDGWFGMKAPEMTNELKNDLKALKMRASMDPKRFYKKNDRDGFPKYFQIGTIVDNPADFYHSRIPKKQRKRTIVEELLADSEFRRYNRRKYSEIMAEKAANAAGKKFRKKKKFRN
As to B1, in experiment [1], the “Difference (log2), PP1 vs untreated” value is -0.5492 log2. In addition, the “Difference (log2), untreated vs GFP” value in experiment [2] worked out at 2.447 log2.

B2: MAP4 (protein, UniProt P27816 2-1152, looked up)
Microtubule-associated …: ADLSLADALTEPSPDIEGEIKRDFIATLEAEAFDDVVGETVGKTDYIPLLDVDEKTGNSESKKKPCSETSQIEDTPSSKPTLLANGGHGVEGSDTTGSPTEFLEEKMAYQEYPNSQNWPEDTNFCFQPEQVVDPIQTDPFKMYHDDDLADLVFPSSATADTSIFAGQNDPLKDSYGMSPCNTAVVPQGWSVEALNSPHSESFVSPEAVAEPPQPTAVPLELAKEIEMASEERPPAQALEIMMGLKTTDMAPSKETEMALAKDMALATKTEVALAKDMESPTKLDVTLAKDMQPSMESDMALVKDMELPTEKEVALVKDVRWPTETDVSSAKNVVLPTETEVAPAKDVTLLKETERASPIKMDLAPSKDMGPPKENKKETERASPIKMDLAPSKDMGPPKENKIVPAKDLVLLSEIEVAQANDIISSTEISSAEKVALSSETEVALARDMTLPPETNVILTKDKALPLEAEVAPVKDMAQLPETEIAPAKDVAPSTVKEVGLLKDMSPLSETEMALGKDVTPPPETEVVLIKNVCLPPEMEVALTEDQVPALKTEAPLAKDGVLTLANNVTPAKDVPPLSETEATPVPIKDMEIAQTQKGISEDSHLESLQDVGQSAAPTFMISPETVTGTGKKCSLPAEEDSVLEKLGERKPCNSQPSELSSETSGIARPEEGRPVVSGTGNDITTPPNKELPPSPEKKTKPLATTQPAKTSTSKAKTQPTSLPKQPAPTTIGGLNKKPMSLASGLVPAAPPKRPAVASARPSILPSKDVKPKPIADAKAPEKRASPSKPASAPASRSGSKSTQTVAKTTTAAAVASTGPSSRSPSTLLPKKPTAIKTEGKPAEVKKMTAKSVPADLSRPKSTSTSSMKKTTTLSGTAPAAGVVPSRVKATPMPSRPSTTPFIDKKPTSAKPSSTTPRLSRLATNTSAPDLKNVRSKVGSTENIKHQPGGGRAKVEKKTEAAATTRKPESNAVTKTAGPIASAQKQPAGKVQIVSKKVSYSHIQSKCGSKDNIKHVPGGGNVQIQNKKVDISKVSSKCGSKANIKHKPGGGDVKIESQKLNFKEKAQAKVGSLDNVGHLPAGGAVKTEGGGSEAPLCPGPPAGEEPAISEAAPEAGAPTSASGLNGHPTLSGGGDQREAQTLDSQIQETSI
As for B2, the “Difference (log2), PP1 vs untreated” value in experiment [1] is -0.5793 log2. Moreover, in experiment [2], the “Difference (log2), untreated vs GFP” value came out at 0.9373 log2.

B3: FUS (protein, UniProt P35637 1-526, looked up)
RNA-binding protein FUS: MASNDYTQQATQSYGAYPTQPGQGYSQQSSQPYGQQSYSGYSQSTDTSGYGQSSYSSYGQSQNTGYGTQSTPQGYGSTGGYGSSQSSQSSYGQQSSYPGYGQQPAPSSTSGSYGSSSQSSSYGQPQSGSYSQQPSYGGQQQSYGQQQSYNPPQGYGQQNQYNSSSGGGGGGGGGGNYGQDQSSMSSGGGSGGGYGNQDQSGGGGSGGYGQQDRGGRGRGGSGGGGGGGGGGYNRSSGGYEPRGRGGGRGGRGGMGGSDRGGFNKFGGPRDQGSRHDSEQDNSDNNTIFVQGLGENVTIESVADYFKQIGIIKTNKKTGQPMINLYTDRETGKLKGEATVSFDDPPSAKAAIDWFDGKEFSGNPIKVSFATRRADFNRGGGNGRGGRGRGGPMGRGGYGGGGSGGGGRGGFPSGGGGGGGQQRAGDWKCPNPTCENMNFSWRNECNQCKAPKPDGPGGGPGGSHMGGNYGDDRRGGRGGYDRGGYRGRGGDRGGFRGGRGGGDRGGFGPGKMDSRGEHRQDRRERPY
In the case of B3, in experiment [1], the “Difference (log2), PP1 vs untreated” value was -0.548 log2. Besides, the “Difference (log2), untreated vs GFP” value in experiment [2] is recorded as -0.2742 log2.

B4: CCDC47 (protein, UniProt Q96A33 21-483, looked up)
PAT complex subunit CCDC47: KFDDFEDEEDIVEYDDNDFAEFEDVMEDSVTESPQRVIITEDDEDETTVELEGQDENQEGDFEDADTQEGDTESEPYDDEEFEGYEDKPDTSSSKNKDPITIVDVPAHLQNSWESYYLEILMVTGLLAYIMNYIIGKNKNSRLAQAWFNTHRELLESNFTLVGDDGTNKEATSTGKLNQENEHIYNLWCSGRVCCEGMLIQLRFLKRQDLLNVLARMMRPVSDQVQIKVTMNDEDMDTYVFAVGTRKALVRLQKEMQDLSEFCSDKPKSGAKYGLPDSLAILSEMGEVTDGMMDTKMVHFLTHYADKIESVHFSDQFSGPKIMQEEGQPLKLPDTKRTLLFTFNVPGSGNTYPKDMEALLPLMNMVIYSIDKAKKFRLNREGKQKADKNRARVEENFLKLTHVQRQEAAQSRREEKKRAEKERIMNEEDPEKQRRLEEAALRREQKKLEKKQMKMKQIKVKAM
For B4, the “Difference (log2), PP1 vs untreated” value in experiment [1] is recorded as -0.5387 log2. Also, the “Difference (log2), untreated vs GFP” value in experiment [2] came out at 1.192 log2.

B5: SPATS2 (protein, UniProt Q86XZ4 1-545, looked up)
Spermatogenesis-associated …: MSRKQNQKDSSGFIFDLQSNTVLAQGGAFENMKEKINAVRAIVPNKSNNEIILVLQHFDNCVDKTVQAFMEGSASEVLKEWTVTGKKKNKKKKNKPKPAAEPSNGIPDSSKSVSIQEEQSAPSSEKGGMNGYHVNGAINDTESVDSLSEGLETLSIDARELEDPESAMLDTLDRTGSMLQNGVSDFETKSLTMHSIHNSQQPRNAAKSLSRPTTETQFSNMGMEDVPLATSKKLSSNIEKSVKDLQRCTVSLARYRVVVKEEMDASIKKMKQAFAELESCLMDREVALLAEMDKVKAEAMEILLSRQKKAELLKKMTHVAVQMSEQQLVELRADIKHFVSERKYDEDLGRVARFTCDVETLKKSIDSFGQVSHPKNSYSTRSRCSSVTSVSLSSPSDASAASSSTCASPPSLTSANKKNFAPGETPAAIANSSGQPYQPLREVLPGNRRGGQGYRPQGQKSNDPMNQGRHDSMGRYRNSSWYSSGSRYQSAPSQAPGNTIERGQTHSAGTNGTGVSMEPSPPTPSFKKGLPQRKPRTSQTEAVNS
In the case of B5, the “Difference (log2), PP1 vs untreated” value in experiment [1] is -0.5886 log2. The “Difference (log2), untreated vs GFP” value in experiment [2] was 1.275 log2.

B6: DHX15 (protein, UniProt O43143 1-795, looked up)
ATP-dependent RNA helicase …: MSKRHRLDLGEDYPSGKKRAGTDGKDRDRDRDREDRSKDRDRERDRGDREREREKEKEKELRASTNAMLISAGLPPLKASHSAHSTHSAHSTHSTHSAHSTHAGHAGHTSLPQCINPFTNLPHTPRYYDILKKRLQLPVWEYKDRFTDILVRHQSFVLVGETGSGKTTQIPQWCVEYMRSLPGPKRGVACTQPRRVAAMSVAQRVADEMDVMLGQEVGYSIRFEDCSSAKTILKYMTDGMLLREAMNDPLLERYGVIILDEAHERTLATDILMGVLKEVVRQRSDLKVIVMSATLDAGKFQIYFDNCPLLTIPGRTHPVEIFYTPEPERDYLEAAIRTVIQIHMCEEEEGDLLLFLTGQEEIDEACKRIKREVDDLGPEVGDIKIIPLYSTLPPQQQQRIFEPPPPKKQNGAIGRKVVVSTNIAETSLTIDGVVFVIDPGFAKQKVYNPRIRVESLLVTAISKASAQQRAGRAGRTRPGKCFRLYTEKAYKTEMQDNTYPEILRSNLGSVVLQLKKLGIDDLVHFDFMDPPAPETLMRALELLNYLAALNDDGDLTELGSMMAEFPLDPQLAKMVIASCDYNCSNEVLSITAMLSVPQCFVRPTEAKKAADEAKMRFAHIDGDHLTLLNVYHAFKQNHESVQWCYDNFINYRSLMSADNVRQQLSRIMDRFNLPRRSTDFTSRDYYINIRKALVTGYFMQVAHLERTGHYLTVKDNQVVQLHPSTVLDHKPEWVLYNEFVLTTKNYIRTCTDIKPEWLVKIAPQYYDMSNFPQCEAKRQLDRIIAKLQSKEYSQY
In the case of B6, the “Difference (log2), PP1 vs untreated” value in experiment [1] is on record as -0.5557 log2. The “Difference (log2), untreated vs GFP” value in experiment [2] was 1.871 log2.

B7: FARSA (protein, UniProt Q9Y285 2-508, looked up)
Phenylalanine--tRNA ligase …: ADGQVAELLLRRLEASDGGLDSAELAAELGMEHQAVVGAVKSLQALGEVIEAELRSTKHWELTAEGEEIAREGSHEARVFRSIPPEGLAQSELMRLPSGKVGFSKAMSNKWIRVDKSAADGPRVFRVVDSMEDEVQRRLQLVRGGQAEKLGEKERSELRKRKLLAEVTLKTYWVSKGSAFSTSISKQETELSPEMISSGSWRDRPFKPYNFLAHGVLPDSGHLHPLLKVRSQFRQIFLEMGFTEMPTDNFIESSFWNFDALFQPQQHPARDQHDTFFLRDPAEALQLPMDYVQRVKRTHSQGGYGSQGYKYNWKLDEARKNLLRTHTTSASARALYRLAQKKPFTPVKYFSIDRVFRNETLDATHLAEFHQIEGVVADHGLTLGHLMGVLREFFTKLGITQLRFKPAYNPYTEPSMEVFSYHQGLKKWVEVGNSGVFRPEMLLPMGLPENVSVIAWGLSLERPTMIKYGINNIRELVGHKVNLQMVYDSPLCRLDAEPRPPPTQEAA
As for B7, the “Difference (log2), PP1 vs untreated” value in experiment [1] is -0.541 log2. Moreover, the “Difference (log2), untreated vs GFP” value in experiment [2] worked out at 1.078 log2.

B8: BRIX1 (protein, UniProt Q8TDN6 1-353, looked up)
Ribosome biogenesis protein …: MAATKRKRRGGFAVQAKKPKRNEIDAEPPAKRHATAEEVEEEERDRIPGPVCKGKWKNKERILIFSSRGINFRTRHLMQDLRMLMPHSKADTKMDRKDKLFVINEVCEMKNCNKCIYFEAKKKQDLYMWLSNSPHGPSAKFLVQNIHTLAELKMTGNCLKGSRPLLSFDPAFDELPHYALLKELLIQIFSTPRYHPKSQPFVDHVFTFTILDNRIWFRNFQIIEEDAALVEIGPRFVLNLIKIFQGSFGGPTLYENPHYQSPNMHRRVIRSITAAKYREKQQVKDVQKLRKKEPKTLLPHDPTADVFVTPAEEKPIEIQWVKPEPKVDLKARKKRIYKRQRKMKQRMDSGKTK
For the molecule B8, the “Difference (log2), PP1 vs untreated” value in experiment [1] is listed as -0.6423 log2. In addition, in experiment [2], the “Difference (log2), untreated vs GFP” value is 1.65 log2.

B9: DCD (protein, UniProt P81605 20-110, looked up)
Dermcidin: YDPEAASAPGSGNPCHEASAAQKENAGEDPGLARQAPKPRKQRSSLLEKGLDGAKKAVGGLGKLGKDAVEDLESVGKGAVHDVKDVLDSVL
With B9, the “Difference (log2), PP1 vs untreated” value in experiment [1] is recorded as -0.6713 log2. The “Difference (log2), untreated vs GFP” value in experiment [2] was -1.7359 log2.
